This passage reports IC50 of inhibition of T cell activation (IFN-γ ELISPOT; Mel 624 target cells, MART-1 specific T cell clone) results from patent US20100135997A1.

Changes are numbered by the printed parent chain.

The target of the assay is Class I pMHC on target cells (Mel 624). In words: cell-based or functional assay.

B1: c138 Fc dimer (polypeptide homodimer Fc fusion) (Fc fusion)
chain: HLPKPTLWAEPGSVITMDQPVTLRCQGGQETQQYRLYREKKTAPWITRIPQELVKKGQFPIPSITWEHAGRYRCYYGSDTRQWSASSDPLELVVTGVYIKPTLSAQPSPVVNSGGNVTLQCDSPFQADGFILCKEGEDDHPQCLNSQPHARGSSRAIFSVGPVSPSRRWRYRCYAYDSNSPYEWSLPSDLLELDVDGRMDPSRSVECPPCPAPPVAGPSVFLFPPKPKDTLMISRTPEVTCVVVDVSHEDPEVKFNWYVDGVEVHNAKTKPREEQYNSTYRVVSVLTVLHQDWLNGKEYKCKVSNKGLPSSIEKTISKAKGQPREPQVYTLPPSREEMTKNQVSLTCLVKGFYPSDIAVEWESNGQPENNYKTTPPVLDSDGSFFLYSKLTVDKSRWQQGNVFSCSVMHEGLHNHYTQKSLSLSPGK
In the case of B1, the IC50 of inhibition of T cell activation (IFN-γ ELISPOT; Mel 624 target cells, MART-1 specific T cell clone) is 0.4 nM.

B2: c64 Fc dimer (ILT Fc fusion homodimer) (Fc fusion)
chain: B1 chain with P124Q, F125V, Q126A, A127F
Regarding B2, the IC50 of inhibition of T cell activation (IFN-γ ELISPOT; Mel 624 target cells, MART-1 specific T cell clone) amounted to 2.3 nM.

B3: c132 Fc dimer (ILT Fc fusion homodimer) (Fc fusion)
chain: B1 chain with Q33E, R81S, D139E, R170W, D177M, N179W
As to B3, the IC50 of inhibition of T cell activation (IFN-γ ELISPOT; Mel 624 target cells, MART-1 specific T cell clone) was 0.45 nM.
